Measurements reported in patent US20240360228A1 (BIOLEGEND, published 2024).

Tests used:
human CCR8 [1] = molecular target: T1, human CCR8 (human, UniProt P51685 1-355); assay: flow blocking, PBMC CCR8+CD3+; competitor PE-L263G8
T1 construct: Native CCR8 on human PBMC (CCR8+ CD3+ or CCR8+ CD4+ lymphocytes); also called chemokine (C-C motif) receptor 8
Procedure: (§1) For blocking studies, 100 μL of the cell suspension were incubated with 10 μg purified isotype control, AB1, AB2, AB3, AB4, AB5, AB8, AB9, AB10, AB11, AB12, AB13, AB14, AB15, and Commercial ABI antibodies, or isotype control, as blocking agents.
(§2) After incubation with the blocking agent, the cells were incubated with 0.25 μg of the indicated PE-conjugated antibody plus anti-human CD4 APC or anti-human CD3 for another 15 minutes in the dark and then washed 2 times with Cell Staining Buffer, and acquired in a FACSCanto II flow cytometer (BD Biosciences); the data was analyzed using FCS Express (De Novo Software); MFI correspond to the CCR8+ CD4+ lymphocytes or CCR8+ CD3+ lymphocytes.
(§3) Percentage original MFI was calculated by dividing the MFI of samples blocked with AB1, AB2, AB3, AB4, AB5, AB6, AB7, AB8, AB9, AB10, AB11, AB12, AB13, AB14, AB15, and Commercial ABI antibodies, by the MFI of samples blocked with the corresponding isotype control. This value was subtracted from 100 to get a blocking percentage. The formula is shown below: […]

human CCR8 [2] = molecular target: T1, human CCR8; assay: flow blocking, PBMC CCR8+CD3+; competitor PE-AB10
Procedure: as §1, §2, §3

human CCR8 [3] = molecular target: T1, human CCR8; assay: flow blocking, PBMC CCR8+CD4+; competitor PE-AB4
How it was run: (§4)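 Unlabeled antibodies (10 μg) or isotype control are preincubated with the cells as blockers. A PE-conjugated competitor (0.25 μg) is then added with anti-CD4 or anti-CD3 for 15 min in the dark, and MFI on CCR8+ lymphocytes is normalized to isotype to give blocking %.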

human CCR8 [4] = molecular target: T1, human CCR8; assay: flow blocking, PBMC CCR8+CD3+; competitor PE-433H
Procedure: as §1, §2, §3

human CCR8 [5] = molecular target: T1, human CCR8; assay: flow blocking, PBMC CCR8+CD4+; competitor PE-AB13
How it was run: (§5)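 Human PBMC (100 μL suspension) were pre-blocked with 10 μg of each unlabelled anti-CCR8 antibody or isotype control. Cells were then stained 15 min in the dark with 0.25 μg of the PE-conjugated competitor antibody plus anti-CD4 or anti-CD3. Read-out by flow cytometry as MFI on CCR8+CD4+ or CCR8+CD3+ lymphocytes.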

human CCR8 [6] = molecular target: T1, human CCR8; assay: flow blocking, PBMC CCR8+CD4+; competitor PE-AB12
How it was run: as §4

human CCR8 [7] = molecular target: T1, human CCR8; assay: flow blocking, PBMC CCR8+CD4+; competitor PE-AB3
How it was run: as §4

human CCR8 [8] = molecular target: T1, human CCR8; assay: flow blocking, PBMC CCR8+CD4+; competitor PE-AB11
How it was run: as §4

human CCR8 [9] = molecular target: T1, human CCR8; assay: flow blocking, PBMC CCR8+CD3+; competitor PE-AB8
Procedure: as §1, §2, §3

human CCR8 [10] = molecular target: T1, human CCR8; assay: flow blocking, PBMC CCR8+CD3+; competitor PE-AB14
Procedure: as §1, §2, §3

human CCR8 [11] = molecular target: T1, human CCR8; assay: flow blocking, PBMC CCR8+CD3+; competitor PE-AB6
Procedure: as §1, §2, §3

human CCR8 [12] = molecular target: T1, human CCR8; assay: flow blocking, PBMC CCR8+CD3+; competitor PE-AB13
Procedure: as §1, §2, §3

human CCR8 [13] = molecular target: T1, human CCR8; assay: flow blocking, PBMC CCR8+CD4+; competitor PE-AB10
How it was run: as §4

human CCR8 [14] = molecular target: T1, human CCR8; assay: flow blocking, PBMC CCR8+CD3+; competitor PE-AB11
Procedure: as §1, §2, §3

human CCR8 [15] = molecular target: T1, human CCR8; assay: flow blocking, PBMC CCR8+CD3+; competitor PE-AB15
Procedure: as §1, §2, §3

human CCR8 [16] = molecular target: T1, human CCR8; assay: flow blocking, PBMC CCR8+CD4+; competitor PE-AB5
How it was run: as §4

human CCR8 [17] = molecular target: T1, human CCR8; assay: flow blocking, PBMC CCR8+CD4+; competitor PE-AB6
human CCR8 [18] = molecular target: T1, human CCR8; assay: flow blocking, PBMC CCR8+CD3+; competitor PE-AB7
Procedure: as §1, §2, §3

human CCR8 [19] = molecular target: T1, human CCR8; assay: flow blocking, PBMC CCR8+CD3+; competitor PE-AB12
Procedure: as §1, §2, §3

human CCR8 [20] = molecular target: T1, human CCR8; assay: flow blocking, PBMC CCR8+CD4+; competitor PE-AB2
How it was run: as §4

human CCR8 [21] = molecular target: T1, human CCR8; assay: flow blocking, PBMC CCR8+CD4+; competitor PE-AB14
How it was run: as §5

human CCR8 [22] = molecular target: T1, human CCR8; assay: flow blocking, PBMC CCR8+CD4+; competitor PE-433H
How it was run: as §5

[23] = molecular target: human chemokine (C-C motif) receptor 8 (CCR8) (human) (UniProt P51685); assay: flow cytometry blocking, PBMC CCR8+ CD4+ cells; competitor PE-AB6 (its MFI is read)
human CCR8 [24] = molecular target: T1, human CCR8; assay: flow blocking, PBMC CCR8+CD4+; competitor PE-AB15
How it was run: as §4

human CCR8 [25] = molecular target: T1, human CCR8; assay: flow blocking, PBMC CCR8+CD3+; competitor PE-AB5
Procedure: as §1, §2, §3

human CCR8 [26] = molecular target: T1, human CCR8; assay: flow blocking, PBMC CCR8+CD4+; competitor PE-AB1
How it was run: as §4

human CCR8 [27] = molecular target: T1, human CCR8; assay: flow, PBMC CCR8+CD3+; PE-L263G8 staining after isotype block
[28] = molecular target: T2, human chemokine (C-C motif) receptor 8 (CCR8) (human, UniProt P51685 1-355); assay: flow cytometry blocking, PBMC CCR8+ CD4+ cells; competitor PE-AB6 (its MFI is read)
T2 construct: On human peripheral blood lymphocytes / PBMC (native) or on human CCR8 GFP-transfected Ba/F3 cells; also called hCCR8; human CCR8
Procedure: as §1, §2, §3

[29] = molecular target: T2, human chemokine (C-C motif) receptor 8 …; assay: flow cytometry blocking, PBMC CCR8+ CD4+ cells; competitor PE-AB3 (its MFI is read)
Procedure: as §1, §2, §3

[30] = molecular target: T2, human chemokine (C-C motif) receptor 8 …; assay: flow cytometry blocking, PBMC CCR8+ CD4+ cells; competitor PE-AB12 (its MFI is read)
Procedure: as §1, §2, §3

[31] = molecular target: T2, human chemokine (C-C motif) receptor 8 …; assay: flow cytometry blocking, PBMC CCR8+ CD4+ cells; competitor PE-ABII (its MFI is read)
Procedure: as §1, §2, §3

[32] = molecular target: T2, human chemokine (C-C motif) receptor 8 …; assay: flow cytometry blocking, PBMC CCR8+ CD4+ cells; competitor PE-AB4 (its MFI is read)
Procedure: as §1, §2, §3

[33] = molecular target: T2, human chemokine (C-C motif) receptor 8 …; assay: flow cytometry blocking, PBMC CCR8+ CD4+ cells; competitor PE-AB5 (its MFI is read)
Procedure: as §1, §2, §3

[34] = molecular target: T2, human chemokine (C-C motif) receptor 8 …; assay: flow cytometry blocking, PBMC CCR8+ CD4+ cells; competitor PE-AB11 (its MFI is read)
Procedure: as §1, §2, §3

[35] = molecular target: T2, human chemokine (C-C motif) receptor 8 …; assay: flow cytometry blocking, PBMC CCR8+ CD4+ cells; competitor PE-AB13 (its MFI is read)
Procedure: as §1, §2, §3

[36] = molecular target: T2, human chemokine (C-C motif) receptor 8 …; assay: cell-based or functional assay
[37] = molecular target: T2, human chemokine (C-C motif) receptor 8 …; assay: flow cytometry blocking, PBMC CCR8+ CD4+ cells; competitor PE-AB15 (its MFI is read)
Procedure: as §1, §2, §3

[38] = molecular target: T2, human chemokine (C-C motif) receptor 8 …; assay: flow cytometry blocking, PBMC CCR8+ CD4+ cells; competitor PE-AB10 (its MFI is read)
Procedure: as §1, §2, §3

[39] = molecular target: T2, human chemokine (C-C motif) receptor 8 …; assay: flow cytometry blocking, PBMC CCR8+ CD4+ cells; competitor PE-AB2 (its MFI is read)
Procedure: as §1, §2, §3

[40] = molecular target: T2, human chemokine (C-C motif) receptor 8 …; assay: flow cytometry blocking, PBMC CCR8+ CD4+ cells; competitor PE-AB14 (its MFI is read)
Procedure: as §1, §2, §3

[41] = molecular target: T2, human chemokine (C-C motif) receptor 8 …; assay: cell-based or functional assay; remark: listed apart in the source
[42] = molecular target: T2, human chemokine (C-C motif) receptor 8 …; assay: flow cytometry blocking, PBMC CCR8+ CD4+ cells; competitor PE-AB1 (its MFI is read)
Procedure: as §1, §2, §3

human CCR8 [43] = molecular target: T1, human CCR8; assay: flow, PBMC CCR8+CD3+; PE-433H staining after isotype block
human CCR8 [44] = molecular target: T1, human CCR8; assay: flow, PBMC CCR8+CD4+; PE-433H staining after isotype block

T1 sequence (P51685 whole entry): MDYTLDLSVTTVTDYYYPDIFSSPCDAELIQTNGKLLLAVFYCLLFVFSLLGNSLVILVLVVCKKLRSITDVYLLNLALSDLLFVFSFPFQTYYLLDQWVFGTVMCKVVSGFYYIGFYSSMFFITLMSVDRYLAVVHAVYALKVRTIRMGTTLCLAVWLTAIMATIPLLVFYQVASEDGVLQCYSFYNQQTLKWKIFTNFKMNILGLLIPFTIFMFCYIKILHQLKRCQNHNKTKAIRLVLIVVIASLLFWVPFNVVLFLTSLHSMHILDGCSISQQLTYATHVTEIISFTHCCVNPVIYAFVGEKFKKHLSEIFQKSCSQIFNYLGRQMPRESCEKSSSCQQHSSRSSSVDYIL
T2 sequence (P51685 whole entry): as above
Chain of human chemokine (C-C motif) receptor 8 (CCR8) (human) (P51685 whole entry): as above

isotype control (antibody)
% Blocking (human CCR8 [1]): 0% | % Blocking (human CCR8 [2]): 0% | % Blocking (human CCR8 [3]): 0% | % Blocking (human CCR8 [4]): 0% | % Blocking (human CCR8 [5]): 0% | % Blocking (human CCR8 [6]): 0% | % Blocking (human CCR8 [7]): 0% | % Blocking (human CCR8 [8]): 0% | % Blocking (human CCR8 [9]): 0% | % Blocking (human CCR8 [10]): 0% | % Blocking (human CCR8 [11]): 0% | % Blocking (human CCR8 [12]): 0% | % Blocking (human CCR8 [13]): 0% | % Blocking (human CCR8 [14]): 0% | % Blocking (human CCR8 [15]): 0% | % Blocking (human CCR8 [16]): 0% | % Blocking (human CCR8 [17]): 0% | % Blocking (human CCR8 [18]): 0% | % Blocking (human CCR8 [19]): 0% | % Blocking (human CCR8 [20]): 0% | % Blocking (human CCR8 [21]): 0% | % Blocking (human CCR8 [22]): 0% | % Blocking [23]: 0% | % Blocking (human CCR8 [24]): 0% | % Blocking (human CCR8 [25]): 0% | % Blocking (human CCR8 [26]): 0%

Commercial L263G8 (antibody)
MFI (human CCR8 [27]): 674

B1: AB11 (antibody, V domains shown)
VH: EVQLVESGGGLVQPKGSLKLSCAASGFAFNTYAMNWVRQAPGKGLEWIARLRSKSNFYATYYADSVKDRFTISRDDSQSMLYLQMNNLKTEDTAVYYCVRGRELGPSYAMDYWGQGTSVTVSS
VL: DIVMTQAAPSVPVTPGESVSISCRSSKSLLHSNGNTYLYWFLQRPGQSPQLLIYRMSNLASGVPDRFSGSGSGTAFTLRISRVEAEDVGVYYCMQHLEYPYTFGGGTKLEIK
notes: Hybridoma monoclonal; also called antibody 11; clone 11
% Blocking [28]: -36.2% | MFI [28]: 1070 | % Blocking [29]: -61.7% | MFI [29]: 1120 | % Blocking [30]: 0.83% | MFI [30]: 968 | % Blocking [31]: 16.6% | MFI [31]: 924 | % Blocking [32]: -53.4% | MFI [32]: 1050 | % Blocking [33]: -36% | MFI [33]: 1020 | % Blocking [34]: 25.3% | MFI [34]: 674 | % Blocking [35]: 7.44% | MFI [35]: 867 | % hCCR8-Ba/F3 - THP-1 complexes [36]: 1.12% | % Blocking [37]: -75.1% | MFI [37]: 1390 | % Blocking [38]: 34.5% | MFI [38]: 661 | % Blocking [39]: -53.5% | MFI [39]: 1030 | % Blocking [40]: -1190% | MFI [40]: 11400 | ratio of Target/Control cells after AB11 plus complement [41]: 0.103 | % Blocking [42]: -48.1% | MFI [42]: 971

B2: Commercial 433H (antibody, from another filing, V domains shown)
VH: EVQLVETGGGLVQPKGSLRLSCAASGFPFNTFAMNWVRQAPGKGLEWLARIRSKSNNYATYYADSVKDRFTISRDDSRRMLYLLMNNVKFEDTAIYYCVRGKENNYGYAMDYWGQGTSVTVSS
VL: DIVMTQAAPSVPVTPGESVSISCRSSQSLLHSNGNTYLYWFLQRPGQSPQLLIYRMSNLASGVPDRFSGSGSGTAFTLRISRVEAEDVGVYYCMQHLEYPFTFGIGTKLELKR
MFI (human CCR8 [43]): 886 | % Positive cells (human CCR8 [44]): 1.76%
